This note sets out measurements from paper doi:10.1101/2023.12.05.570191 (bioRxiv, 2023).

The data set deals with the molecule itself. The data set can be described thus: FRET or BRET. (BRET reads energy transfer from a luciferase to a nearby fluorophore.)

B1: Cy5-labelled metallated Zur (Zur^Cy5, Cy5 at C113) (natural protein, E. coli)
chain: MEKTTTQELLAQAEKISAQRNVRLTPQRLEVLRLMSLQDGAISAYDLLDLLREAEPQAKPPTVYRALDFLLEQGFVHKVESTNSYVLCHLFDQPTHTSAMFICDRCGAVKEECAEGVEDIMHTLAAKMGFALRHNVIEAHGLCAACVEVEASRHPEQSQHDHSVQVKKKPR
modifications: Cy5 (maleimide chemistry) at C113 of one monomer of the dimer
As to B1, the binding result is “binds”.
